Measurements published in the supplement of paper PMC10724198.
± gives the standard deviation of the averaged measurements.

tested on: Saccharomyces cerevisiae; assay: protein stability index of tFT-peptide fusion (C-terminal peptide) (PSI (0-1 scale)); higher = more stable (slower turnover); conditions: genetic background: wild type; temperature: 30 C
Experimental: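 Multiplexed protein stability (MPS) profiling in S. cerevisiae. Random 12-aa peptides (tFT-X12 library) are fused to the C-terminus of a sfGFP-mCherry tandem fluorescent timer, after mCherry and a GGGS linker. Cells are FACS-sorted into 8 mCherry/sfGFP bins and deep-sequenced. The protein stability index (PSI) is the read-weighted bin average, scaled from 0 (unstable) to 1 (stable). Only peptides with >10 reads are reported; cells were grown at 30 °C in SC-His with glucose.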
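Further: PSI is a weighted mean of sequencing reads over stability bins, variants kept only with over 10 reads, mCherry proximal and sfGFP distal, peptide attached via GGGS linker.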

| Sequence | protein stability index |
| --- | --- |
| HLLLLDLTRPIL | 0.745 ± 0.061 |
| HLLRGSSPDRYV | 0.737 ± 0.019 |
| HLRIAHTPDSPR | 0.703 ± 0.0082 |
| HLSSPPSLLPPP | 0.657 ± 0.05 |
| HLSWFSPFFASG | 0.772 ± 0.018 |
| HLVPYVVKHLVP | 0.6785 ± 0.0062 |
| HLWAPRQNTIRY | 0.649 ± 0.091 |
| HMRPSTRLMPAG | 0.593 ± 0.01 |
| HNGYLKRIKISR | 0.707 ± 0.085 |
| HNSRTVPISVSV | 0.528 ± 0.038 |
| HNVLVYCGCALG | 0.6032 ± 0.0036 |
| HPAALTPVPALH | 0.661 ± 0.036 |
| HPFSLGSLVASW | 0.6412 ± 0.0027 |
| HPISLSYPSPFV | 0.665 ± 0.13 |
| HPPAFSAKTFPS | 0.683 ± 0.043 |
| HPPPPRLPPRPP | 0.63 ± 0.02 |
| HPPRPPPRSPPP | 0.656 ± 0.1 |
| HPPSLPPLPPPL | 0.727 ± 0.054 |
| HPPSPPSRVSPS | 0.594 ± 0.032 |
| HPPTCTTVLPTL | 0.579 ± 0.023 |
| HPTDPPFRNTTA | 0.6996 ± 0.0043 |
| HPTLPSLQVSPS | 0.689 ± 0.031 |
| HQLSQYEGARTL | 0.733 ± 0.064 |
| HQRIKLMPEVWS | 0.689 ± 0.056 |
| HRAPACEHDIKK | 0.705 ± 0.015 |
| HRKVCARHNWEE | 0.673 ± 0.046 |

| Sequence | protein stability index |
| --- | --- |
| HRLQGQGAWYVT | 0.643 ± 0.061 |
| HRPGYLTSSASD | 0.65 ± 0.062 |
| HRPPPPPSPSHL | 0.686 ± 0.01 |
| HRQAFSAVPCIH | 0.588 ± 0.042 |
| HRSHVRHSFPNP | 0.703 ± 0.038 |
| HRTSVRIPIPPI | 0.683 ± 0.012 |
| HRWCLADYVEVG | 0.773 ± 0.063 |
| HRWSRGIDATGV | 0.665 ± 0.083 |
| HSCPLLLAPPPS | 0.608 ± 0.058 |
| HSCYGHIRVSFC | 0.705 ± 0.0098 |
| HSGAPFPPDSPR | 0.783 ± 0.16 |
| HSINNVITNNTE | 0.678 ± 0.017 |
| HSSLHLTRALCL | 0.677 ± 0.043 |
| HSSRSPPPSPYA | 0.709 ± 0.042 |
| HSSSASPPISSF | 0.657 ± 0.041 |
| HSTEKGIMLNEY | 0.704 ± 0.19 |
| HSTESHHQLDNQ | 0.649 ± 0.026 |
| HSTPPSPAPPTA | 0.675 ± 0.062 |
| HSVVANECHQGQ | 0.766 ± 0.11 |
| HTAITSGYSRGL | 0.633 ± 0.049 |
| HTGTCSVLPHTL | 0.663 ± 0.052 |
| HTLQDNHRLPRA | 0.6058 ± 0.0029 |
| HTPRLRRMRDYH | 0.658 ± 0.087 |
| HTRIGDGSRLLA | 0.72666 ± 0.00065 |
| HVHLHSTTAPPP | 0.695 ± 0.015 |
| HVTHPGCTLQLR | 0.707 ± 0.071 |

| Sequence | protein stability index |
| --- | --- |
| HWLGCDESRGWV | 0.668 ± 0.037 |
| HYFRSIFLFVVR | 0.506 ± 0.017 |
| HYGQRKKEFRLT | 0.73 ± 0.0075 |
| HYWTTENDWPHG | 0.705 ± 0.025 |
| IADLGDLTKVTL | 0.693 ± 0.019 |
| IALACPGGSYIV | 0.6739 ± 0.0024 |
| IALTSVRIPSSP | 0.678 ± 0.047 |
| IARSVLRIGVWG | 0.612 ± 0.045 |
| IASASGAQAGAR | 0.636 ± 0.017 |
| ICAPSPSPAFTF | 0.689 ± 0.0086 |
| ICMGSLLYVGPC | 0.5515 ± 0.0034 |
| ICVYGGRKISPG | 0.6877 ± 0.00097 |
| IDLWGNGRCVEL | 0.701 ± 0.048 |
| IEKVKIMNKERN | 0.692 ± 0.017 |
| IFFRARRLEAHT | 0.608 ± 0.019 |
| IFGMSIMLNRIT | 0.541 ± 0.041 |
| IFGVSRTGIRCT | 0.56 ± 0.011 |
| IFKNAWSSYRIE | 0.714 ± 0.037 |
| IFPRPHVDIPLL | 0.922 ± 0.075 |
| IFRSCCLLGLCL | 0.591 ± 0.099 |
| IFYCPPVPTFPL | 0.697 ± 0.024 |
| IGEGLLFWFGIR | 0.66 ± 0.042 |
| IGGAMLSPLKVR | 0.55 ± 0.021 |
| IGGDLGRDSTCL | 0.592 ± 0.11 |
| IGGGPLWLVNNM | 0.6748 ± 0.0054 |
| IGGYNRTFELMG | 0.678 ± 0.032 |

| Sequence | protein stability index |
| --- | --- |
| IGRVSVWDQKVA | 0.673 ± 0.054 |
| IGSDFQLFLEGC | 0.668 ± 0.044 |
| IGSEKGKIGVGC | 0.677 ± 0.067 |
| IGTGHPRTGLSR | 0.682 ± 0.031 |
| IIFRLLLSRFFL | 0.543 ± 0.022 |
| IIRAGVPLSISE | 0.652 ± 0.019 |
| IIRKQQAKKVEL | 0.681 ± 0.025 |
| IIRSKGTKSMHK | 0.691 ± 0.013 |
| IIYKPEKMRPKS | 0.7146 ± 0.0068 |
| IKFMTTGVRTMG | 0.662 ± 0.03 |
| IKKKKKKIKRNN | 0.654 ± 0.0099 |
| IKKKKRRKEQEK | 0.7477 ± 0.0035 |
| IKKKTKQKQHEK | 0.786 ± 0.3 |
| IKKRKQYCKRIK | 0.6801 ± 0.0048 |
| IKRIDQYEKQNK | 0.659 ± 0.07 |
| IKRIYQKKIERK | 0.762 ± 0.067 |
| ILDNWQFSYIKD | 0.713 ± 0.051 |
| ILDRRTKREDLK | 0.667 ± 0.038 |
| ILKQYLHRRFEF | 0.709 ± 0.057 |
| ILLFISGPPMSF | 0.735 ± 0.062 |
| ILRPAPVFPLDP | 0.689 ± 0.0089 |
| ILSCLLRSSFQC | 0.606 ± 0.045 |
| ILSSPGLLLFRL | 0.5449 ± 0.005 |
| ILWFYSDSPWLS | 0.763 ± 0.11 |
| IMDHKSNSDKWI | 0.7193 ± 0.0011 |
| IMKKKKNKARDI | 0.75 ± 0.055 |

| Sequence | protein stability index |
| --- | --- |
| IMSFTLLAPGQM | 0.692 ± 0.019 |
| INHNKNKTIIAL | 0.655 ± 0.0075 |
| INRDKLNRRKKL | 0.687 ± 0.038 |
| INSKTRIQVTEN | 0.73 ± 0.035 |
| INSSPRSSTLLL | 0.686 ± 0.034 |
| INWNVMDRVTCN | 0.633 ± 0.12 |
| IPLLEALLQLAA | 0.562 ± 0.014 |
| IPLSFDRLLLID | 0.63 ± 0.015 |
| IPPCRSFSYIAT | 0.68 ± 0.048 |
| IPPLNQDPFCAS | 0.678 ± 0.017 |
| IPPSSLSSPLPP | 0.704 ± 0.019 |
| IPQIVRKLVPLT | 0.575 ± 0.007 |
| IPSVRATDGKIM | 0.649 ± 0.024 |
| IRCHSERKSWMY | 0.7 ± 0.065 |
| IRDLFHHFFLSV | 0.654 ± 0.038 |
| IRIIETPDSFYK | 0.795 ± 0.058 |
| IRIKKGMETGKL | 0.69 ± 0.0084 |
| IRIKKQRKEKRK | 0.734 ± 0.048 |
| IRLSVPGLTCVS | 0.504 ± 0.0031 |
| IRPFALSPSSLP | 0.658 ± 0.12 |
| IRRKYEGNKEQN | 0.721 ± 0.069 |
| IRSRSVTKYGWS | 0.606 ± 0.025 |
| IRVGVESGSRGR | 0.728 ± 0.22 |
| IRVLDVWRSGHL | 0.737 ± 0.0079 |
| ISPFPSFPPTLS | 0.734 ± 0.064 |
| ISPLPPVPAGLS | 0.6906 ± 0.0056 |

| Sequence | protein stability index |
| --- | --- |
| ISPTPPAPSRPS | 0.688 ± 0.015 |
| ISRATMKARARG | 0.6522 ± 0.004 |
| ISVSGLVVSVGP | 0.649 ± 0.011 |
| ISWTRAPLAHPR | 0.879 ± 0.17 |
| ITLQGDWCRLVD | 0.715 ± 0.092 |
| ITWFRKVGAYGA | 0.644 ± 0.069 |
| IVFRLGRFCGRV | 0.709 ± 0.018 |
| IVNLAQAEFVVT | 0.645 ± 0.039 |
| IVRTKLHPIGTS | 0.655 ± 0.043 |
| IVSPGSLAGCSV | 0.675 ± 0.034 |
| IVTGMGVVHIWR | 0.698 ± 0.04 |
| IVTSPRPPRCTS | 0.7193 ± 0.0051 |
| IVVRAGGCSVGW | 0.695 ± 0.081 |
| IYNDPYYLIKAR | 0.644 ± 0.018 |
| IYPRLGPHSLVC | 0.589 ± 0.016 |
| KAPCRVGARKGG | 0.688 ± 0.051 |
| KCKLLKIMKKKE | 0.636 ± 0.13 |
| KDANACSCDATS | 0.6774 ± 0.0026 |
| KDDKQRKQHGKK | 0.6632 ± 0.0046 |
| KDKKKNQNRKKN | 0.661 ± 0.038 |
| KDKRNEGSGLCK | 0.645 ± 0.022 |
| KDNCHSNQRELT | 0.663 ± 0.046 |
| KEEAKRPQSNET | 0.706 ± 0.02 |
| KEEAQKMKKIGE | 0.752 ± 0.096 |
| KEKSRNIKKRRK | 0.705 ± 0.079 |
